In patent US20050272649A1, “Conjoint administration of morphogens and ACE inhibitors in treatment of chronic renal failure” (priority 2002, published 2005):
“Also recorded” adds a separate entry of the source. Where two headings read alike, the source gives them in different places.

What was measured:
hypertension = conditions: enalapril 20 mg per day; three-month study; cited from earlier work
[1] = test system: alloxan-induced diabetic Sprague-Dawley rats; test: Alloxan-induced diabetic nephropathy model; assay type: in vivo, rat; conditions: for proteinuria level (in words) / serum creatinine level (in words): 12 weeks of treatment; for proteinuria level / serum creatinine level: 12 weeks; for proteinuria level: diabetic about 180; for serum creatinine level: diabetic about 115
Procedure: Similar to streptozotocin, alloxan kills pancreatic β cells and induces type I diabetes (for review, see Cheta et al. (1998) J Pediatr Endocrinol Metab 11: 11-9). Alloxan is also widely used to induce experimental diabetic nephropathy in animals (FIG. 25). Adult female Sprague-Dawley rats (weighing 200-250 g) were intraperitoneally injected with alloxan (70 mg/kg body weight) to induce hyperglycemia. Renal arteries were clamped just prior to injection to prevent direct nephrotoxicity, and then clamps were removed 5 minutes after injection. At week 16 when renal function declined, animals were treated with OP-1 (10 μg/kg body weight, 3×/week, or 30 μg/kg body weight, 1×/week), enalapril (100 mg/L in drinking water) or the combination of OP-1 and enalapril. Control animals without alloxan treatment were handled in all other ways like treated animals. The treatment duration was 12 weeks. All rats were sacrificed after […].

[2] = test system: streptozotocin-induced diabetic Sprague-Dawley rats; test: Streptozotocin-induced diabetic nephropathy model (Example 3); assay type: in vivo, rat; conditions: for proteinuria level: OP-1 30 and 100 μg/kg, enalapril 50 and 100 mg/L, or combination, diabetic about 140 mg/day
Procedure: Streptozotocin kills pancreatic β cells and induces type I diabetes (for review, see Cheta et al. (1998) J Pediatr Endocrinol Metab 11:11-9). It is widely used to induce experimental diabetic nephropathy in animals (see FIG. 22). Adult female Sprague-Dawley rats (weighing 200-250 g) were intraperitoneally injected with streptozotocin (60 mg/kg body weight) to induce hyperglycemia. Hyperglycemic rats then received daily injections of insulin to maintain blood glucose between 200-400 mg/dL. At week 16 when renal function declined, animals were treated weekly with OP-1 (10, 30 or 100 μg/kg body weight), enalapril (50 or 100 mg/L in drinking water) or a combination of OP-1 and enalapril. Control animals without streptozotocin treatment were handled in all other ways like treated animals. Animals were sacrificed at week 32 post-streptozotocin treatment.

[3] = test system: streptozotocin diabetic Sprague-Dawley rats; assay type: in vivo; conditions: preliminary / unpublished studies
[4] = test system: unilateral ureteral ligation in Sprague-Dawley rats; conditions: cited from earlier work; for renal blood flow (RBF): during UUO; for interstitial inflammation, fibrogenesis / renal (tubulointerstitial) fibrosis: OP-1 100 or 300 μg/kg, first 5 days after obstruction, compared with enalapril
[5] = test system: unilateral ureteral ligation in Sprague-Dawley rats; test: Unilateral Ureteral Obstruction (UUO) renal fibrosis model; assay type: in vivo, rat; conditions: for loss of medullary tissue in the kidney: untreated about 24%
Source text: This UUO model was employed essentially as described (Moller, et al. (1984) Virchows Arch 402: 209-237, the entire contents of which are incorporated herein by reference). Sprague-Dawley rats (about 250 g) underwent either a sham operation (ureter manipulated but not ligated) or unilateral ureteral ligation. Two ligatures, 5 mm apart, were placed in the upper two-thirds of the ureter over a section of polyethylene tubing placed around the ureter (see FIG. 17). The suture tied to obstruct the ureter was removed along with the tubing at day 5, relieving the obstruction. […] Uremia is avoided by the function of the contralateral kidney, which undergoes hypertrophy and hyperplasia as the obstructed kidney is destroyed. The renal injury of UUO is mediated in part through stimulation of renal angiotensin II production, which activates type-1 A-II Receptor and the downsteam TGF-β in a cascade of events culminating in tubulointerstitial inflammation and fibrosis. Inhibition of angiotensin II production by ACE inhibitors (or inhibition of A-II receptors) decreases expansion of the renal interstitium associated with fibrosis.
The effect of OP-1 on Renal fibrosis has been published (Hruska, et al. (2000) Am J Physiol Renal Physiol 279:F130-43, incorporated herein by reference), and a summarization is as follows. […] Additional effects of OP-1 have been observed in this rat UUO model.

[6] = solubility of mature OP-1 with casein; assay type: physicochemical; conditions: addition of 0.2% casein; mature active form of OP-1
Source text: Association of the mature morphogen dimer with a morphogen pro domain results in the pro form of the morphogen which typically is more soluble in physiological solutions than the corresponding mature form. In fact, endogenous morphogens are thought to be transported (e.g., secreted and circulated) in the mammalian body in this form. This soluble form of the protein can be obtained from culture medium of morphogen-secreting mammalian cells, e.g., cells transfected with nucleic acid encoding and competent to express the morphogen. Alternatively, a soluble species can be formulated by complexing the mature, morphogenically active polypeptide dimer (or an active fragment thereof) with a morphogen pro domain polypeptide or a solubility-enhancing fragment thereof. Solubility-enhancing pro domain fragments can be any N-terminal, C-terminal or internal fragment of the pro region of a member of the morphogen family that complexes with the mature polypeptide dimer to enhance stability and/or dissolubility of the resulting noncovalent or covalent complex. Typically, useful fragments are those cleaved at the proteolytic site Arg-Xaa-Xaa-Arg (SEQ ID NO: 30). A detailed description of soluble complex forms of morphogenic proteins, including how to make, test and use them, is described in WO 94/03600 (PCT US 93/07189). […]

CCOC(=O)[C@H](CCc1ccccc1)N[C@@H](C)C(=O)N1CCC[C@H]1C(=O)O [enalapril, N-(1-ethoxycarbonyl-3-phenylpropyl)-L-ananyl-L-proline, reference compound]
decrease in diastolic blood pressure (hypertension): 7.2 mm Hg
decrease in systolic blood pressure (hypertension): 8.2 mm Hg
proteinuria level (in words) [1]: reduces the proteinuria level; also recorded: reduce the preteinuria level
serum creatinine level (in words) [1]: decreases the serum creatinine level
serum creatinine level (in words) ([1]; listed as elalapril): reduces the serum creatinine level at a lesser degree
proteinuria level ([1]; enalapril 100 mg/L drinking water alone, or combination of OP-1 and enalapril): ~140 mg/dL/24 hr
proteinuria level [2]: almost normal level; also recorded: significantly reduced the proteinuria level
Enalapril response: dose and route of administration compared [3]: no difference in the Enalapril response between 5 and 20 mg/kg; also recorded: equally effective as more arduous means of administering Enalapril
tubular atrophy ([4]; UUO rats): an effect not shared with ACEI enalapril
renal blood flow (RBF) [4]: also stimulated RBF

B1: OP-1: osteogenic protein-1 (OP-1, also known as BMP-7), morphogen of the OP/BMP family; OP-1 used interchangeably with sBMP-7 (protein)
chain: STGSKQRSQNRSKTPKNQEALRMANVAENSSSDQRQACKKHELYVSFRDLGWQDWIIAPEGYAAYYCEGECAFPLNSYMNATNHAIVQTLVHFINPETVPKPCCAPTQLNAISVLYFDDSSNVILKKYRNMVVRACGCH
proteinuria level (in words) [1]: reduces the proteinuria level; also recorded: reduce the preteinuria level
serum creatinine level (in words) [1]: decreases the serum creatinine level; also recorded: dramatically reduces the serum creatinine level
serum creatinine level ([1]; OP-1 10 μg/kg 3×/week): about 65 μmole/L
proteinuria level ([1]; OP-1 10 μg/kg 3×/week): about 80 mg/dL/24 hr
serum creatinine level ([1]; OP-1 30 μg/kg 1×/week): ~55 µmol/L
proteinuria level ([1]; OP-1 30 μg/kg 1×/week): ~110 mg/dL/24 hr
loss of medullary tissue in the kidney ([5]; OP-1 at 100 μg/kg): about 16%
loss of medullary tissue in the kidney ([5]; OP-1 at 300 μg/kg): about 13%
loss of medullary tissue / medullary necrosis (in words) ([5]; UUO rats): reduces tubular atrophy and medullary necrosis; also recorded: significantly reduced the loss of medullary tissue
increase in solubility [6]: 80%
mean GFR ([2]; OP-1 100 μg/kg weekly, weeks 16-32, 32-week diabetic animals about 0.38): about 0.7 ml/min/100 g body weight
proteinuria level [2]: almost normal level; also recorded: reduces proteinuria; also recorded: significantly reduced the proteinuria level
glomerular filtration rate (in words) ([2]; weeks 16-32 treatment): significantly increased the glomerular filtration rate; also recorded: increases the glomerular filtration rate
interstitial inflammation, fibrogenesis / renal (tubulointerstitial) fibrosis [4]: prevented interstitial inflammation and fibrogenesis; also recorded: more effective in preventing tubulointerstitial fibrosis and in preserving renal function; also recorded: reduces renal fibrosis
interstitial inflammation, fibrogenesis / renal (tubulointerstitial) fibrosis ([4]; listed as OP-1/BMP-7): Inhibits renal fibrosis
epithelial cell apoptosis produced by UUO ([4]; UUO rats): blocked the stimulation of epithelial cell apoptosis
tubular atrophy ([4]; UUO rats): prevention of tubular atrophy; also recorded: reduces tubular atrophy
tubular epithelial disruption ([4]; UUO rats): inhibited tubular epithelial disruption
renal blood flow (RBF) [4]: preserved renal blood flow
